Reference: patent publication US20160185837A1 (Medimmune Limited, priority 2013, published 2016)
Where “and” joins values, the source holds several entries; their conditions need not be identical. Equal entries are not always repeated.

Columns and labels:
Assay type in all cases: cell-based
[1] = molecular target: T1, mouse GLP-1 receptor (mGLP-1r) (Mus musculus, UniProt O35659); assay: BSA-cAMP assay, cells expressing mouse GLP-1 receptor; settings: BSA-cAMP assay; read-out: cAMP activity mGLP1r (EC50)
T1 construct: expressed in transfected cells; host or cells: HEK293s or CHO cells
T1 sequence (O35659 22-463): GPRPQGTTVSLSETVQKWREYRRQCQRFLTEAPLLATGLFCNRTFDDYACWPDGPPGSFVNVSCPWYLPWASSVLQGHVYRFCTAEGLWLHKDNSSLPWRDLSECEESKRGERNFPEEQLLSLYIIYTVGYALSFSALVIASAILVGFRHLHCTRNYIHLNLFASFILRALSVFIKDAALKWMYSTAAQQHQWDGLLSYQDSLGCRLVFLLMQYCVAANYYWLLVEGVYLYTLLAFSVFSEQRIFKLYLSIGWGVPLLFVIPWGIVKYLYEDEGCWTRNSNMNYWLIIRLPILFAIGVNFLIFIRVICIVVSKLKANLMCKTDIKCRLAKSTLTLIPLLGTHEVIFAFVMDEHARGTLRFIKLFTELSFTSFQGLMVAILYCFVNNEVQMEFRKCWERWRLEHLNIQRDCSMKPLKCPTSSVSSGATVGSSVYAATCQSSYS
Description: (§1) One basic cAMP assays was performed, differing in the medium used for the assay, the “BSA-cAMP assay”:
(§2) BSA-based assay medium: 0.1% bovine serum albumin (BSA) in
(§3) In certain aspects, the assay can also be carried out in medium supplemented with serum albumin that corresponds to the receptor being tested, e.g., human serum albumin for testing cAMP activity at hGIPr or hGLP-1r, rat serum albumin for testing cAMP activity at rGIPr or rGLP-1r, and so on. […] All sample dilutions were made in duplicate.
(§4) A frozen cryo-vial of cells expressing the receptor of interest was thawed rapidly in a water-bath, transferred to pre-warmed assay media and spun at 240×g for 5 minutes. Cells were re-suspended in assay buffer at an optimized concentration (e.g., hGLP-1r and hGIPr cells at 0.5×10^5 cells/ml).
(§5) To this, 5 μL cell suspension was added and the plates incubated at room temperature for 30 minutes.
(§6) cAMP levels were measured using a commercially available cAMP dynamic 2 HTRF kit (Cisbio, Cat #62AM4PEJ), following the two step protocol as per manufacturer's recommendations. In brief; anti-cAMP cryptate (donor fluorophore) and cAMP-d2 (acceptor fluorophore) were made up separately by diluting each 1/20 in conjugate & lysis buffer provided in the kit. 5 μL anti-cAMP cryptate was added to all wells of the assay plate, and 5 μL cAMP-d2 added to all wells except non-specific binding (NSB) wells, to which conjugate and lysis buffer was added. […] Data was transformed to % Delta F as described in manufacturer's guidelines and then transformed to percent activation of maximal native agonist response and analysed by 4-parameter logistic fit to determine EC50 values.
(§7) We used unconstrained 4 parameter logistic fit of data, curve mid-point to determine EC50. This was tested on two occasions, not two batches.
(§8) In order to be able to carry out in vivo studies in rodents, IP088 was tested for potency against the mouse receptors mGIPr and mGLP-1r as well as the rat receptors rGIPr and rGLP-1r, using cells expressing the respective receptors in the cAMP assay described above.

[2] = molecular target: T2, rat GLP-1 receptor (rGLP-1r) (Rattus norvegicus, UniProt P32301); assay: BSA-cAMP assay, cells expressing rat GLP-1 receptor; settings: BSA-cAMP assay; read-out: cAMP activity rGLP1r (EC50)
T2 construct: expressed in transfected cells; host or cells: HEK293s or CHO cells
T2 sequence (P32301 22-463): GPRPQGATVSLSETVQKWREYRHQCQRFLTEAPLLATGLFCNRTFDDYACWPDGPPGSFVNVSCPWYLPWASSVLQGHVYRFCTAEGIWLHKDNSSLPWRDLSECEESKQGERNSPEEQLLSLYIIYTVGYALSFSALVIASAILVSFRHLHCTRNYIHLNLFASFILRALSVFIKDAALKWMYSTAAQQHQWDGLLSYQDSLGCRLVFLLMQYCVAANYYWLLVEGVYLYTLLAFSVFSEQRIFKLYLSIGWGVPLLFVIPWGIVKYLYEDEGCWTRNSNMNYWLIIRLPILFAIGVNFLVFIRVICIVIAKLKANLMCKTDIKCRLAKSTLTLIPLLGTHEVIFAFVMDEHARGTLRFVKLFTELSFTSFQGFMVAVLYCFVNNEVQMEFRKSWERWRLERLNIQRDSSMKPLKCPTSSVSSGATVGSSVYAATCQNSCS
Description: as §1, §2, §3, §4, §5, §6, §7, §8

[3] = molecular target: T3, human GIP receptor (hGIPr) (Homo sapiens, UniProt P48546); assay: BSA-cAMP assay, cells expressing human GIP receptor; settings: BSA-cAMP assay; batch 1 unless a batch is given; read-out: cAMP activity hGIPr (EC50)
T3 construct: expressed in transfected cells
T3 sequence (P48546 22-466): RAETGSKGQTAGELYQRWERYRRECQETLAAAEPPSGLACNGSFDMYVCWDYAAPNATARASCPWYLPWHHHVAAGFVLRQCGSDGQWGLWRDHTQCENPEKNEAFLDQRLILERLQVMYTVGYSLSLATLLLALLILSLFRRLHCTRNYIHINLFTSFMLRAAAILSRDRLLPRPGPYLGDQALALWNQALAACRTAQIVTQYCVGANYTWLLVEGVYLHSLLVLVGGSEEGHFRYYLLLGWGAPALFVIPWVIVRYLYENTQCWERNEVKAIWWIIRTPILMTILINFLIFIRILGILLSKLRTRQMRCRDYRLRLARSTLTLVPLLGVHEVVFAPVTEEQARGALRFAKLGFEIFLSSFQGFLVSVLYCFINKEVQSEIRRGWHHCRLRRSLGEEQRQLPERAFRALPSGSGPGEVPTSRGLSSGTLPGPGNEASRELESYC
Description: For human GIPr, two different lines were used, shown as “hGIPr” and “hGIPr (C3)” in Table 11.
as §1, §2, §3, §4, §5, §6, §7

[4] = molecular target: T4, human GLP-1 receptor (hGLP-1r) (Homo sapiens, UniProt P43220); assay: BSA-cAMP assay, cells expressing human GLP-1 receptor; settings: BSA-cAMP assay; batch 1 unless a batch is given; read-out: cAMP activity hGLP1r (EC50)
T4 construct: expressed in transfected cells
Description: as §1, §2, §3, §4, §5, §6, §7

[5] = molecular target: T5, human glucagon receptor (GCGr) (Homo sapiens, UniProt P47871); assay: BSA-cAMP assay, cells expressing human glucagon receptor; settings: batch 1 unless a batch is given, read-out: cAMP activity hGCGr (EC50)
T5 construct: expressed in transfected cells; host or cells: HEK293s or CHO cells
Description: as §1, §2, §3, §4, §5, §6, §7

rat GIP receptor (rGIPr) = molecular target: T6, rat GIP receptor (rGIPr) (Rattus norvegicus, UniProt P43219); assay: BSA-cAMP assay, cells expressing rat GIP receptor; settings: BSA-cAMP assay; read-out: cAMP activity rGIPr (EC50)
T6 construct: expressed in transfected cells; host or cells: HEK293s or CHO cells
T6 sequence (P43219 19-455): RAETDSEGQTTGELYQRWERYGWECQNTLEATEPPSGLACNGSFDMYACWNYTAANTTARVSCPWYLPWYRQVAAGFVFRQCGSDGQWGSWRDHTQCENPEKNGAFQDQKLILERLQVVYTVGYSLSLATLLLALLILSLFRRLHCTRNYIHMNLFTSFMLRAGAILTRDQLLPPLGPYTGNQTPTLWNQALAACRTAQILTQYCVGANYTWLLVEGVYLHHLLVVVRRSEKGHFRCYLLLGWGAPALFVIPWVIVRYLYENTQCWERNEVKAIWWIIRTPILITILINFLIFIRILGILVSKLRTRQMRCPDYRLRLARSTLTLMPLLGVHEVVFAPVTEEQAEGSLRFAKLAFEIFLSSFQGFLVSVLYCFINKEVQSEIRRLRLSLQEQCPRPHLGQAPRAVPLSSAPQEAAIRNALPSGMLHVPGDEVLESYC
Description: as §1, §2, §3, §4, §5, §6, §7, §8

[6] = molecular target: T7, mouse GIP receptor (mGIPr) (Mus musculus, UniProt Q0P543); assay: BSA-cAMP assay, cells expressing mouse GIP receptor; settings: BSA-cAMP assay; read-out: cAMP activity mGIPr (EC50)
T7 construct: expressed in transfected cells; host or cells: HEK293s or CHO cells
T7 sequence (Q0P543 19-460): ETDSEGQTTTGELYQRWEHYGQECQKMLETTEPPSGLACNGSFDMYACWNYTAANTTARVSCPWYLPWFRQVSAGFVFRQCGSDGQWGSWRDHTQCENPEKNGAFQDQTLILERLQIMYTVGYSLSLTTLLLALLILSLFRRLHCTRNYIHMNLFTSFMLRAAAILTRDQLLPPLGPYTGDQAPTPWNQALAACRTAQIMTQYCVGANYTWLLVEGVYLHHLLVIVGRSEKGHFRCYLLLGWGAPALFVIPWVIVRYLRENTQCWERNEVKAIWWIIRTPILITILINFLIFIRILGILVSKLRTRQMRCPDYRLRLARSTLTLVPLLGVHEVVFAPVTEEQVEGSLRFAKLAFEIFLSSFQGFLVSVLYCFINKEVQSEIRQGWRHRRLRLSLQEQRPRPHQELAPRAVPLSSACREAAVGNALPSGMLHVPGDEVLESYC
Description: as §1, §2, §3, §4, §5, §6, §7, §8

T4 sequence (P43220 24-463): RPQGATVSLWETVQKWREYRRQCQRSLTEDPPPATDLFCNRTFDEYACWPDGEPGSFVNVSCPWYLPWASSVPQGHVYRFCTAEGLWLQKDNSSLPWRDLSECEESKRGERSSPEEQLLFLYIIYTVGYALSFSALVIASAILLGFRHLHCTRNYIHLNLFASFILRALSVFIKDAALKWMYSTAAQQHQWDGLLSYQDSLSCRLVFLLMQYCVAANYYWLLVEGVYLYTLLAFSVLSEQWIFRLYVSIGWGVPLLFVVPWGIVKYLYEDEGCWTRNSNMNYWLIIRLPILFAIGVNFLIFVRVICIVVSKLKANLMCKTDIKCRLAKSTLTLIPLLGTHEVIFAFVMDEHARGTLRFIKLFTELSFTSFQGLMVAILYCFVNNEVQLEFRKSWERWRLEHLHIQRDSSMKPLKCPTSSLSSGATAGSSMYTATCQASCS
T5 sequence (P47871 26-477): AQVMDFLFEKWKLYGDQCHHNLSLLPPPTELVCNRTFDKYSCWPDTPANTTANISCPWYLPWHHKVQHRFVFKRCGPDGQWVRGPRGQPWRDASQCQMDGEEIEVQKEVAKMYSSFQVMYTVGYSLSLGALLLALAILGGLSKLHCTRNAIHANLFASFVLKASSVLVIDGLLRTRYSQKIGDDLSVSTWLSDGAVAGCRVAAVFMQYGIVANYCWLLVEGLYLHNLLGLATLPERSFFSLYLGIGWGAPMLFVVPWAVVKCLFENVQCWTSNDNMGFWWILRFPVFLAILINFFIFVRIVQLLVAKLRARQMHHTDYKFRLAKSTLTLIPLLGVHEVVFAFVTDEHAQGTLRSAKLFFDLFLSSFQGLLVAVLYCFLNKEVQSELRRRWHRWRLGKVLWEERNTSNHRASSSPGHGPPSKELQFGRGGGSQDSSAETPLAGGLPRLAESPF

B1: IP015 (protein)
chain: HGEGTFTSDVSSYLEGQAAKEFIAWLVKGAAAGGSGSTASSGSGSATGGGGAATHTCPPCPAPEF
modifications: /note=“Description of Artificial Sequence Synthetic Peptide-linker-hinge polypeptide”
EC50 [1]: 0.13 nM | EC50 [2]: 0.014 nM | EC50 [3]: 27 nM | EC50 [4]: 0.041 nM and 0.023 nM and 0.038 nM

B2: IP146 (protein)
chain: HGEGTFTSDVSSYLEGQAAKEFIAWLVKGAAAGGSGSTASSGSGSATGGGGAACPPCPAPEF
modifications: /note=“Description of Artificial Sequence Synthetic Peptide-linker-hinge polypeptide”
EC50 [3]: 83 nM | EC50 [5]: 650 nM | EC50 [4]: 0.049 nM

B3: IP188 (protein)
chain: YSEGTFISDYSIAMDKIHQQDFVNWLLAQKAPPGGGGGSGGGGSGGGGSGGGGSATHTCPPCPAPEF
modifications: /note=“Description of Artificial Sequence Synthetic Peptide-linker-hinge polypeptide”
EC50 [3]: 0.0038 nM | EC50 [5]: 350 nM | EC50 [4]: 500 nM

B4: IP207 (protein)
chain: YAEGTFISDYSIAMDKIHQQDFVNWLLAQKGKKNDWKHNITQAAAGGSGSTASSGSGSATGGGGAATHTCPPCPAPELL
modifications: /note=“Description of Artificial Sequence Synthetic Peptide-linker-hinge polypeptide”
EC50 [3]: 0.0085 nM and 0.0078 nM | EC50 [5]: 900 nM | EC50 [4]: 4100 nM

B5: IP170 (protein)
chain: YSEGTFTSDVSSYMERQAIDEFIAWLLKGGAAAGGSGSTASSGSGSATGGGGAATHTCPPCPAPEF
modifications: /note=“Description of Artificial Sequence Synthetic Peptide-linker-hinge polypeptide”
EC50 (rat GIP receptor (rGIPr)): 2.3 nM | EC50 [1]: 0.85 nM | EC50 [2]: 0.06 nM | EC50 [3]: 0.079 nM | EC50 [4]: 0.12 nM | EC50 [6]: 34 nM

B6: IP209 (protein)
chain: YSEGTFTSDYSSYMERQAIDEFIAWLLKGGAAAGGSGSTASSGSGSATGGGGAATHTCPPCPAPEF
modifications: /note=“Description of Artificial Sequence Synthetic Peptide-linker-hinge polypeptide”
EC50 [1]: 0.84 nM and 1.6 nM | EC50 [2]: 0.075 nM and 0.091 nM | EC50 [5]: > 6270 nM | EC50 [4]: 0.23 nM and 0.2 nM

B7: IP223 (protein)
chain: YSEGTFTSDVSSYMEEEAIDEFIAWLLKGGAAAGGSGSTASSGSGSATGGGGAATHTCPPCPAPEF
modifications: /note=“Description of Artificial Sequence Synthetic Peptide-linker-hinge polypeptide”
EC50 (rat GIP receptor (rGIPr)): 72 nM | EC50 [1]: 80 nM | EC50 [2]: 18 nM | EC50 [3]: 2.5 nM | EC50 [4]: 16 nM

B8: IP250 (protein)
chain: YSEGTFTSDVSIAMDRQAIDEFIAWLLKGGAAAGGSGSTASSGSGSATGGGGAATHTCPPCPAPEF
modifications: /note=“Description of Artificial Sequence Synthetic Peptide-linker-hinge polypeptide”
EC50 (rat GIP receptor (rGIPr)): 5.3 nM | EC50 [1]: 22 nM | EC50 [2]: 2.2 nM | EC50 [3]: 0.11 nM | EC50 [4]: 1.1 nM | EC50 [6]: 35 nM

B9: IP203 (protein)
chain: HGEGTFTSDVSSYLEGQAAKEFIAWLVKGGAAAGGSGSTASSGSGSATGGGGAATHTCPPCPAPEF
modifications: /note=“Description of Artificial Sequence Synthetic Peptide-linker-hinge polypeptide”
EC50 [3]: 110 nM | EC50 [5]: > 650 nM | EC50 [4]: 0.042 nM

B10: IP226 (protein)
chain: YSEGTFTSDVSKLLERQAIDEFIAWLLKGGAAAGGSGSTASSGSGSATGGGGAATHTCPPCPAPEF
modifications: /note=“Description of Artificial Sequence Synthetic Peptide-linker-hinge polypeptide”
EC50 (rat GIP receptor (rGIPr)): 0.27 nM | EC50 [1]: 1 nM | EC50 [2]: 0.061 nM | EC50 [3]: 0.025 nM | EC50 [4]: 0.2 nM | EC50 [6]: 7.5 nM
